Assay results as given in patent US7033773B1, “Screening assays for G protein coupled receptor agonists and antagonists” (The General Hospital Corporation, priority 1997, dated 2006).

Key:
rat PTHR = target: T1, rat PTHR (Rattus norvegicus, UniProt P25961); assay: Cellular cAMP accumulation in LLC-PK1 cells expressing rat PTHR; type: cell-based; conditions: EW5 cells
T1 construct: expressed in transfected cells; host or cells: LLC-PK1 porcine renal epithelial cells (EW5; also EW29, AR-C38, AR-B44)
T1 sequence (P25961 27-591): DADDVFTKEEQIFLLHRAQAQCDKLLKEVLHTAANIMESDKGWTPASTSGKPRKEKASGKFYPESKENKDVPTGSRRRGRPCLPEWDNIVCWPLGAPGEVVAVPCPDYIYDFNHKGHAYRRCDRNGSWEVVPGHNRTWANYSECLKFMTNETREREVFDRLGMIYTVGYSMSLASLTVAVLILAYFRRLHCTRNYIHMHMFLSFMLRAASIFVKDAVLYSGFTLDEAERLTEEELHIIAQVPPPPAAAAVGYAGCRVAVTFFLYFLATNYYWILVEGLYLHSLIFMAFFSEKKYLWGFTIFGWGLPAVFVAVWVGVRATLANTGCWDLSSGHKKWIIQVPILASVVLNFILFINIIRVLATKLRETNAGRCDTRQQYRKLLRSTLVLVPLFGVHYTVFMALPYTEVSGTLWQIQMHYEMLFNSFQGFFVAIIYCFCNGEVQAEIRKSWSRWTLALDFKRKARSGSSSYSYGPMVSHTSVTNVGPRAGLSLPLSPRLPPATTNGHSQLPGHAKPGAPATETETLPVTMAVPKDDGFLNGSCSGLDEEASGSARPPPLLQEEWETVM
Protocol: FIG. 10. Stimulation of cyclic AMP accumulation by hPTH(1-31) and hPTH(1-34) in LLC-PK1 cells that express rat PTHRs. Cyclic AMP accumulation was measured in response to hPTH(1-34) (●) or hPTH(1-31) (Δ) in EW5 cells that expressed 320,000 rat PTHRs per cell. Results are expressed as fold basal.
Cells were seeded into 24-well plates at a density of 2.5×10^5 cells/well and cultured for a further 2 days before study. The cells were rinsed once with 0.5 ml of ice-cold Buffer B [10 mM HEPES (pH 7.4), 130 mM NaCl, 5 mM KCl, 1.2 mM CaCl2, 1 mM MgCl2, 1.2 mM Na2HPO^4 5 mM glucose, and 0.1% heat-inactivated BSA] supplemented with 1 mM isobtylmethylxanthine (IBMX), and placed on ice. Treatments were added to each well in 0.25 ml of IBMX-supplemented Buffer B, after which the plates were incubated at 37° C. for 15 min. The buffer then was rapidly aspirated, the plates were rapidly transferred onto liquid nitrogen, and the frozen monolayers were subsequently thawed directly into 0.5 ml of 50 mM HCl. The extracted cAMP then was measured using a commercial RIA kit (Dupont-New England Nuclear, Boston, Mass.). Results were expressed as fold-basal, where basal levels ranged between 38 and 128 pmol/mg protein/15 min. The basal level of cAMP accumulation in native LLC-PK1 cells was not consistently altered in subclones that expressed wild type PTH/PTHrp receptors.

human PTH/PTHrP receptor = target: T2, human PTH/PTHrP receptor (Homo sapiens, UniProt Q03431); assay: IP3 production (PLC activation) in LLC-PK1 cells expressing human PTHR; type: cell-based; design: transfected with a full-length human PTH/PTHrP receptor cDNA; expressed in transfected cells; conditions: for formation of IP3 (activation of phospholipase-C): peptide 1000 nM, mean±SEM
T2 sequence (Q03431 27-593): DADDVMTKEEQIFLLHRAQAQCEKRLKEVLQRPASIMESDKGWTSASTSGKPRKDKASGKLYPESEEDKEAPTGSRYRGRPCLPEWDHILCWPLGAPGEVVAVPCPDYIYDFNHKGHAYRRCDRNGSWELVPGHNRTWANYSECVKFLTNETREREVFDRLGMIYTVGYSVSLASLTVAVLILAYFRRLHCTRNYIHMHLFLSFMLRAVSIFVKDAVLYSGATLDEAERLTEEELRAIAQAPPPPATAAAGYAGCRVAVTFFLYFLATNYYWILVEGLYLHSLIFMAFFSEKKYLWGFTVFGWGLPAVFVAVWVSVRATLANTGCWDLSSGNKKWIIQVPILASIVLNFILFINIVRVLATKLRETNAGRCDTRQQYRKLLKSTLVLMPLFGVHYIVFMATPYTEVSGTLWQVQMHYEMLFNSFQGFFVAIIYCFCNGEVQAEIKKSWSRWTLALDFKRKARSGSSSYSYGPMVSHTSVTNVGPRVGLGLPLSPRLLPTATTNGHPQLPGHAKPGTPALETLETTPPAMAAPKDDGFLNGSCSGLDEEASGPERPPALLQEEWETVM
Protocol: Cells were seeded into 24-well plates at a density of 2.5×10^5 cells/well and cultured for a further 2 days before study. The cells were labeled at 37° C. for 16 h before assay with 3 uCi/ml of [^3H]myo-inositol in assay medium (serum- and inositol-free DMEM (GIBCO-BRL, Grand Island, N.Y.) supplemented with 0.1% BSA). After washing the cells with prewarmed assay medium containing 30 mM LiCl, they were incubated with 0.25 ml of assay medium containing 30 mM LiCl and stimulators (or vehicle) at 37° C. for various intervals(1-30 min). IP3 formation was arrested by aspiration and immediate addition of 0.5 ml of ice-cold 5% TCA. The acid extracts then were extracted twice with two volumes of water-saturated ether and adjusted to pH 7.4 with concentrated NaOH and Tris base (final concentration=10 mM) prior to chromatography on AG 1×8 anion-exchange columns (Bio-Rad, Richmond, Calif.), as previously described (Guo, J., et al., Endocrinology 136:3884-3891 (1995)). After eluting other fractions (free [^3H]myo-inositol, glycerophosphate inositol, IP1, and IP2), IP3 fractions were collected and their content of radioactivity was determined by liquid scintillation spectrometry (Beckman, model LS 6000IC).
HKRK B7 cells and HKRK B28 cells, previously loaded with [^3H]myo-inositol, were incubated with each peptide (1000 nM) for 30 min or 4 min, respectively. The formation of IP3 is expressed as a percentage of the amount measured in vehicle-treated controls. Values shown are means±SEM of triplicate determinations.

- activation of AC (in words) (rat PTHR): activated AC equivalently
- formation of IP3 (activation of phospholipase-C) (human PTH/PTHrP receptor; HKRK B7 cells, 30 min stimulation): 275 ± 21 percentage of vehicle-treated
- formation of IP3 (activation of phospholipase-C) (human PTH/PTHrP receptor; HKRK B28 cells, 4 min stimulation): 170 ± 14 percentage of vehicle-treated
Substance: hPTH(1-31)
- activation of PLC (in words) (human PTH/PTHrP receptor; 1000 nM, HKRK B28 at 4 min and HKRK B7 at 30 min): stimulated PLC equivalently to hPTH(1-34)
